Residue numbers refer to the chain shown, from its start. Numbers in names are those of the source.
How the values were obtained:
Drg1fl–Lerepo4_220–396 = target: T1, Drg1fl–Lerepo4_220–396 (Homo sapiens, UniProt Q9Y295); assay: malachite green phosphate release; assay type: biochemical; conditions: 100 mM KCl, 50 mM Tris pH 7.5, 5 mM MgCl2, 37°C, 1 h, 20 μM protein
T1 construct: gene DRG1; recombinant full-length Drg1 with C-terminal Lerepo4 fragment; with Zinc finger CCCH domain-containing protein 15
T1 sequence (Q9Y295 2-367): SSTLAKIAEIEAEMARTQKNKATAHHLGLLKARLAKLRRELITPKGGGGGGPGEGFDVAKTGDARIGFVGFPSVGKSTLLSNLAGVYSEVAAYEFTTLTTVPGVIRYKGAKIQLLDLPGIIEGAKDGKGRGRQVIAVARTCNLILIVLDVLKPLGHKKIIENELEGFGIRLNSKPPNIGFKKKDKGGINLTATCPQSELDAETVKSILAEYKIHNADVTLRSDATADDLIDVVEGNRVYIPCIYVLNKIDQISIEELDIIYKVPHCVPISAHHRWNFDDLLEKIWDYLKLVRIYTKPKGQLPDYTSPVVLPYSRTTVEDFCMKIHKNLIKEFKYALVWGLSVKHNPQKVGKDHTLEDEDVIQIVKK
T1 sequence (Q8WU90 220-396 partner): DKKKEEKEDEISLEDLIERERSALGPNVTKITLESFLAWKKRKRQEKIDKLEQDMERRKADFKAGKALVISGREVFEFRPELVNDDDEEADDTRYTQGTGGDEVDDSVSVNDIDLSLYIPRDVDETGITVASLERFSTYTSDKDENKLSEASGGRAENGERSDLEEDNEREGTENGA
From the text: malachite green phosphate release on Drg1fl–Lerepo4_220–396

Rbg1fl–Tma46_205–345 [1] = target: T2, Rbg1fl–Tma46_205–345 (Saccharomyces cerevisiae, UniProt P39729); assay: thermal shift assay (Sypro Orange); assay type: binding; conditions: 150 mM NaCl, 20 mM Tris pH 7.5, 2 mM DTT, ~0.05 mM protein
T2 construct: gene RBG1; 6His-tagged full-length Rbg1 (N-terminal tag) co-expressed in E. coli with Tma46 residues 205-345; heterodimer; with Translation machinery-associated protein 46
T2 sequence (P39729 1-369): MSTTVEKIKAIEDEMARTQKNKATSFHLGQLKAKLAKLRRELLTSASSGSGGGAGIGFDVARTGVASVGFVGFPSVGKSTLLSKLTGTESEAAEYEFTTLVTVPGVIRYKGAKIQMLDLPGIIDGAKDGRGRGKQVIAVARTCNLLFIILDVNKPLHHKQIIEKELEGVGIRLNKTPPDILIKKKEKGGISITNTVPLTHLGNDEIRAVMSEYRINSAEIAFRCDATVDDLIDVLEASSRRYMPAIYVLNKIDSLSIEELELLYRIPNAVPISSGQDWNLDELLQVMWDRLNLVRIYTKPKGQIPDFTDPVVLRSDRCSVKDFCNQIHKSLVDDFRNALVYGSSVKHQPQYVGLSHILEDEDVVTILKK
T2 sequence (Q12000 205-345 partner): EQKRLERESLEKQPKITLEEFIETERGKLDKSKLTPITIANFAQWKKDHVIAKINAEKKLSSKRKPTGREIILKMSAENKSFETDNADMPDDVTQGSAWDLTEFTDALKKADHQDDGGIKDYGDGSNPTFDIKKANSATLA

Rbg1fl–Tma46_205–345 [2] = target: T3, Rbg1fl–Tma46_205–345 (Saccharomyces cerevisiae, UniProt P39729); assay: malachite green phosphate release; assay type: biochemical; conditions: 100 mM KCl, 50 mM Tris pH 7.5, 5 mM MgCl2, 37°C, 1 h, 20 μM protein
T3 construct: gene RBG1; 6His-tagged full-length Rbg1 (N-terminal tag) co-expressed in E. coli with Tma46 residues 205-345; heterodimer; with Translation machinery-associated protein 46
T3 sequence (P39729 1-369): T2 sequence (P39729 1-369)
T3 sequence (Q12000 205-345 I241A/F246A partner): T2 sequence (Q12000 205-345 partner) with I37A, F42A
From the text: (§1) malachite green phosphate release on Rbg1fl–Tma46_205–345

Rbg1fl–Tma46_205–345 [3] = target: T4, Rbg1fl–Tma46_205–345 (Saccharomyces cerevisiae, UniProt P39729); assay: malachite green phosphate release; assay type: biochemical; conditions: 100 mM KCl, 50 mM Tris pH 7.5, 5 mM MgCl2, 37°C, 1 h, 20 μM protein; remark: listed apart in the source
T4 construct: gene RBG1; 6His-tagged full-length Rbg1 (N-terminal tag) co-expressed in E. coli with Tma46 residues 205-345; heterodimer; with Translation machinery-associated protein 46
T4 sequence (P39729 1-369): T2 sequence (P39729 1-369)
T4 sequence (Q12000 205-345 W249A/K250E partner): T2 sequence (Q12000 205-345 partner) with W45A, K46E
From the text: as §1

Rbg1fl–Tma46_205–345 [4] = target: T5, Rbg1fl–Tma46_205–345 (Saccharomyces cerevisiae, UniProt P39729); assay: malachite green phosphate release; assay type: biochemical; conditions: 100 mM KCl, 50 mM Tris pH 7.5, 5 mM MgCl2, 37°C, 1 h, 20 μM protein; remark: listed apart in the source
T5 construct: gene RBG1; 6His-tagged full-length Rbg1 (N-terminal tag) co-expressed in E. coli with Tma46 residues 205-345; heterodimer; with Translation machinery-associated protein 46
T5 sequence (P39729 1-369): T2 sequence (P39729 1-369)
T5 sequence (Q12000 205-345 I241A partner): T2 sequence (Q12000 205-345 partner) with I37A
From the text: as §1

[5] = target: human Drg1 full length (human) (UniProt Q9Y295)
[6] = target: T6, 6His-tagged full-length Rbg1 (yeast) (UniProt P39729)
T6 sequence: T2 sequence (P39729 1-369)

[7] = substrate: Nc1nc2c(ncn2[C@@H]2O[C@H](COP(=O)(O)OP(=O)(O)OP(=O)(O)O)[C@@H](O)[C@H]2O)c(=O)[nH]1; assay: malachite green phosphate release; assay type: biochemical, Saccharomyces cerevisiae; conditions: 100 mM KCl, 50 mM Tris pH 7.5, 5 mM MgCl2, 37°C, 1 h, 20 μM protein
From the text: as §1

[8] = substrate: Nc1nc2c(ncn2[C@@H]2O[C@H](COP(=O)(O)OP(=O)(O)OP(=O)(O)O)[C@@H](O)[C@H]2O)c(=O)[nH]1; assay: malachite green phosphate release; assay type: biochemical, Saccharomyces cerevisiae; conditions: 100 mM KCl, 50 mM Tris pH 7.5, 5 mM MgCl2, 37°C, 1 h, 20 μM protein; remark: listed apart in the source
From the text: malachite green phosphate release on Rbg1_1–294–Tma46_205–345 (ΔTGS)

[9] = substrate: Nc1nc2c(ncn2[C@@H]2O[C@H](COP(=O)(O)OP(=O)(O)OP(=O)(O)O)[C@@H](O)[C@H]2O)c(=O)[nH]1; assay: malachite green phosphate release; assay type: biochemical, Saccharomyces cerevisiae; conditions: 100 mM KCl, 50 mM Tris pH 7.5, 5 mM MgCl2, 37°C, 1 h, 20 μM protein; remark: listed apart in the source
[10] = substrate: Nc1nc2c(ncn2[C@@H]2O[C@H](COP(=O)(O)OP(=O)(O)OP(=O)(O)O)[C@@H](O)[C@H]2O)c(=O)[nH]1; assay: malachite green phosphate release; assay type: biochemical, Saccharomyces cerevisiae; conditions: 100 mM KCl, 50 mM Tris pH 7.5, 5 mM MgCl2, 37°C, 1 h, 20 μM protein; remark: listed apart in the source
From the text: malachite green phosphate release on Rbg1fl–Tma46_239–345 (Tma46Δα1)

With `Nc1nc2c(ncn2[C@@H]2O[C@H](COP(=O)(O)OP(=O)(O)OP(=O)(O)O)[C@@H](O)[C@H]2O)c(=O)[nH]1` [GTP] the Km (Drg1fl–Lerepo4_220–396) was 319 ± 35 µM, the “increase in melting temperature” value (Rbg1fl–Tma46_205–345 [1]; 0.2 mM GTP) was “increased melting temperature in the presence of the GDP, GTP or non-hydrolysable GTPγS” and the Km (Rbg1fl–Tma46_205–345 [2]) was 429 ± 94.7 µM. The Km (Rbg1fl–Tma46_205–345 [3]) was 426 ± 52.6 µM and the Km (Rbg1fl–Tma46_205–345 [4]) was 186 ± 34.5 µM.

In the case of “Lerepo4_(220–396) (from UniProt Q8WU90 220-396) (domain or fragment)”, the GTP hydrolysis (Malachite green), Vmax of the complex; free Drg1 showed significantly reduced activity (nmol min^−1 mg^−1) [5] is reported as 0.115 and the GTP hydrolysis (Malachite green), kcat of the complex [5] is reported as 0.000123 s⁻¹.

In the case of `Nc1nc2c(ncn2[C@@H]2O[C@H](COP(=O)(O)OP(=O)(O)OP(O)(O)=S)[C@@H](O)[C@H]2O)c(=O)[nH]1` [GTPγS], the “increase in melting temperature” value (Rbg1fl–Tma46_205–345 [1]; 0.5 mM GTPγS in methods (0.2 mM also stated in Figure 4 legend)) is reported as “increased melting temperature in the presence of the GDP, GTP or non-hydrolysable GTPγS”.

For `Nc1nc2c(ncn2[C@@H]2O[C@H](COP(=O)(O)OP(=O)(O)O)[C@@H](O)[C@H]2O)c(=O)[nH]1` [GDP], the “increase in melting temperature” value (Rbg1fl–Tma46_205–345 [1]; 0.2 mM GDP) was “increased melting temperature in the presence of the GDP, GTP or non-hydrolysable GTPγS”.

B1: Tma46_(205–345 I241A) (domain or fragment)
chain: T2 sequence (Q12000 205-345 partner) with I37A
B1 showed a GTP hydrolysis (Malachite green), Vmax (nmol min^−1 mg^−1) [6] of 0.0406 and a GTP hydrolysis (Malachite green), kcat [6] of 3.83e-05 s⁻¹.

B2: Tma46_(205–345 W249A K250E) (domain or fragment)
chain: T2 sequence (Q12000 205-345 partner) with W45A, K46E
With B2 the GTP hydrolysis (Malachite green), Vmax (nmol min^−1 mg^−1) [6] was 0.0345 and the GTP hydrolysis (Malachite green), kcat [6] was 3.33e-05 s⁻¹.

B3: Tma46_(205–345 I241A, F246A) (domain or fragment)
chain: T2 sequence (Q12000 205-345 partner) with I37A, F42A
B3 was tested, and the GTP hydrolysis (Malachite green), Vmax (nmol min^−1 mg^−1) [6] was 0.0288 and the GTP hydrolysis (Malachite green), kcat [6] was 2.83e-05 s⁻¹.

B4: Rbg1fl–Tma46_205–345 (Saccharomyces cerevisiae S288C) (protein)
chain: T2 sequence (P39729 1-369)
notes: 6His-tagged full-length Rbg1 (N-terminal tag) co-expressed in E. coli with Tma46 residues 205-345; heterodimer; with Translation machinery-associated protein 46
For B4, the Km [7] was 304.1 ± 32.5 µM, the Vmax [7] was 5.93e-05 µmol/min/mg and the kcat [7] was 5.67e-05 s⁻¹.

B5: Rbg1_1–294–Tma46_205–345 (ΔTGS) (Saccharomyces cerevisiae S288C) (protein)
chain: MSTTVEKIKAIEDEMARTQKNKATSFHLGQLKAKLAKLRRELLTSASSGSGGGAGIGFDVARTGVASVGFVGFPSVGKSTLLSKLTGTESEAAEYEFTTLVTVPGVIRYKGAKIQMLDLPGIIDGAKDGRGRGKQVIAVARTCNLLFIILDVNKPLHHKQIIEKELEGVGIRLNKTPPDILIKKKEKGGISITNTVPLTHLGNDEIRAVMSEYRINSAEIAFRCDATVDDLIDVLEASSRRYMPAIYVLNKIDSLSIEELELLYRIPNAVPISSGQDWNLDELLQVMWDRLNLV
notes: 6His-tagged Rbg1 lacking TGS domain (residues 1-294), co-expressed in E. coli with Tma46 205-345; with Translation machinery-associated protein 46
Molecule B5 has a Km [8] of 426.3 ± 165 µM, a Vmax [8] of 1.66e-05 µmol/min/mg and a kcat [8] of 1.33e-05 s⁻¹.

B6: Rbg1Δ175–243+Gly–Tma46_205–345 (ΔS5D2L) (Saccharomyces cerevisiae S288C; DEL175-243/INS174G) (protein)
chain: MSTTVEKIKAIEDEMARTQKNKATSFHLGQLKAKLAKLRRELLTSASSGSGGGAGIGFDVARTGVASVGFVGFPSVGKSTLLSKLTGTESEAAEYEFTTLVTVPGVIRYKGAKIQMLDLPGIIDGAKDGRGRGKQVIAVARTCNLLFIILDVNKPLHHKQIIEKELEGVGIRLNGPAIYVLNKIDSLSIEELELLYRIPNAVPISSGQDWNLDELLQVMWDRLNLVRIYTKPKGQIPDFTDPVVLRSDRCSVKDFCNQIHKSLVDDFRNALVYGSSVKHQPQYVGLSHILEDEDVVTILKK
notes: 6His-tagged Rbg1 with S5D2L domain (175-243) replaced by one Gly, co-expressed in E. coli with Tma46 205-345; with Translation machinery-associated protein 46
With B6 the Km [9] was 221.5 ± 159.2 µM, the Vmax [9] was 1.57e-05 µmol/min/mg and the kcat [9] was 1e-05 s⁻¹.

B7: Rbg1fl–Tma46_239–345 (Tma46Δα1) (Saccharomyces cerevisiae S288C) (protein)
chain: T2 sequence (P39729 1-369)
notes: 6His-tagged full-length Rbg1 with Tma46 residues 239-345 (lacks helix α1), expressed in E. coli; with Translation machinery-associated protein 46
B7 gave a Km [10] of 191.2 ± 26.6 µM, a Vmax [10] of 3.7e-05 µmol/min/mg and a kcat [10] of 3.33e-05 s⁻¹.
